Data from PMC5318444.

Columns and labels:
[1] = molecular target: T1, ArcA (Escherichia coli (uropathogenic CFT073?)) (UniProt P0A9Q2); assay: EMSA; details: 10 mM Tris pH 7.5, 1 mM EDTA, 1 mM DTT, 50 mM KCl, 50 mM MgCl2, 1 ug/ml BSA; 10 nM DNA, protein 0-240 nM; 30 min room temperature (ArcA, RpoN) …
T1 sequence: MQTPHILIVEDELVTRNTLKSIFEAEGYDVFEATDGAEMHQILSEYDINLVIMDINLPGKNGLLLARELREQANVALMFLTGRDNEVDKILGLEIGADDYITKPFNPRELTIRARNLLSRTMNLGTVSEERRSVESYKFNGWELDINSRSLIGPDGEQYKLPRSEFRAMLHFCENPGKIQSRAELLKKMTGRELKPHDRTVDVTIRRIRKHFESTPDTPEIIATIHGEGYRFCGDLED

[2] = test system: RpoN (sigma54) (Escherichia coli (CFT073?)), ORF:8ae15e91; assay: EMSA; details: 10 mM Tris pH 7.5, 1 mM EDTA, 1 mM DTT, 50 mM KCl, 50 mM MgCl2, 1 ug/ml BSA; 10 nM DNA, protein 0-240 nM; 30 min room temperature (ArcA, RpoN) …

Sequence	binding [1]	binding [2]
ATCTGTGTGGTAAGAGAATCACCTTTTATTTACTGTGCGGAAAACCGCGCACAAAATAAAAAGAATAAATAATAAAATCATTAAATAACAAAGCGTTATTAAAAAATTAAAGATGGCATAGCTCCTGCAATAGCCAGGCAGGTTTTTTATTTTTCACAATGAGGTGAATATGTCATCAATATCCCATGGCGCACCACAAAAGCGTCGAATTATCCCTAATCCCGGCCTGTGGTT (double strand) [c5038 promoter probe]	no binding	binds
ATGTTAAGCATGATAACGCCTTTTAGGGGCAATTTAAAAGTTGGCACAGATTTCGCTTTATCTTTTTTACGGCGACACGGCCCATTTAATTGCAGATTTCGTTACCACGACGACAATGACCAATCCAGGAGAGTTAAAGTATGTCCGCTGAACACGTACTGACGATGCTGAACGAGCACGAAGTGAAGTTTGTTG (double strand) [glnA promoter probe]		binds
TGCGCAATTGTACTTATTGCATTTTTCTCTTCGAGGAATTACCCAGTTTCATCATCCCATTTTATTTTGCGAGCGAGCGCACACTTGTGAATTATCTCAATAGCAGTGTGAAATAACATAATTGAGCAACTGAAAGGGAGTGCCCAATATTACGACATCATCCATCACCCGCGGCATTACCTGATTATGGAGTTCAATATGCAAGCCT (double strand) [xylA promoter probe]		no binding
GGCGCGTCTTATACTCCCACATAAGCCAGATTCAACAGCGAATACGTCTTCCCCAAATTGCCCACTTCCATACTTCCTCCTTACCAGAAATCTATCCTTAAGCTCCTTAATAACCATTTTCCTGCTAACTAAATTCATGGTTAAGGTTGCATAATGATATGCAACAAATGTATAACATTTTTCTTACCAAAAAATAAACAAAAGCGACCGACAAAAGCATTGGATTACGGCAGGAG (double strand) [kgtP promoter probe]	binds	
